# Measured values as given in the DeepSol protein solubility set.
# Experiment: soluble on expression in E. coli; label from the status in PepcDB or PDB records
row,Sequence,soluble on expression in E. coli
1,MAHHHHHHMENKENLRNQQEFNQLCRILRLVEGDPGQVVKEPPNLGILIEVLQKMVKATFVKESSYQEAVDAREKWKSTDSTVETKNIMDKQRADDLVRYKITHEKLKKLLAKAKMLVSRIKEERYLAYVSRNAALEKMAKVVYGSSAEKMFRNETEFEKFLANSQGTIVGKTAKETCGMSNDKMKNVSFAGYSLVGDFFCLCVGENNNATLCDKSFSGPREEHKWTKVMFEDKLVDFAAGWFKIRGLCYVNATSGIKDVVTPENISTEIVAFNKMLGRQRDDVQIYRREAESYRQYILGRVEQVGFTDSAICTGEHQHMCVNYAQCLVSNKGIPWQLKLMEAEEDLEDVEKHNMEVHVLIGRLDKLIEKIKKAAEQLSQEMEGIDVAVEKVQLLEEEIEENETTGKSEATAGEFNDNAQPEEGSLDKCEYWGMFSILFGVVAFSLV,not soluble
2,MAHHHHHHMESLDERWNNQVDNFHIKVNKLRCDMNEYKKGCYNTYNLRNNKNDVFPHLQNNNMKRRELINMNNNYEIKNYLKKPHNQTYILKDNKYVNVDDITFPVSKNISNKVIKTNDEKILENKCCFKLNVRNKRKNEKVIKINEKRWLIATKHVKIERVNKNGVEQSEEKNKKDKNRYIYLEGEEGNLHLYPMYSDSEVGFENISHIEDESLSKVKKENQDDDDIMTTKHLAQWSSDIVHKYLEEAIEKSKSIFQNCNMESRQEEIFKRIKL,not soluble
3,MAHHHHHHMESPEADEAFSKSLDAKVDDLFARIPLPQDPMKVALALTDEEAREEAATELVKEAVREMYWRKLGAKQAEELRLKKAQEKLQKQGAIQYFEERREEERLREHENTQFAAQPLAVEPQSPVGKGVTASPLQNLDSTLSAEELRKELAAMKANVSRLEELLRYKT,soluble
4,MAHHHHHHMEYDKEKMESLVSKVKEKFGKKVEIVNLKLDVKMPLFEIFLQASIHTQIKIFYARGRTLQYRLPPVFWTRCKILKENKILQEKYGGECAPGLFPQYDEYNIMQIMTECVYNDKYNFYVYDVNLEWENLCALTPENRELRKIVHQNVHVPTRLAVIKAFEQGVEDFRDVIREEYLIMLREQRKLKENKKYKF,not soluble
5,MAHHHHHHMFHGFPQVQVVSDDAPTGESIFAKDSDSHVELPPAKKVRISFPALTHLGSFSQDATCHSAVGGRLCGVQQGDTILITSVLPSLGASGDAEDERDDTAESKQQQKMYEKVKEMLRKECLDSYSVGYFIVSSACVNDPYSVVTADRLANLAIDGHPSVLLVYDPFRTGLMGKLYLRAFVPTDAFLDFSRKNKKTKKTDKKSGMQEEARLLRACSVPKQGVLREVKVEVEVDAYQLFCLNGIDIAPLPSNSTVHHSDSMADYKVALLESVQRNLSDLEGKLSRETSRNQRDENNVPPARGVDTMLALVQLREQAQHLEALCDGTLLISSLLRDL,not soluble
6,MAHHHHHHMFNYRREVLLDLWRKMPEAAACETVAPPEAVKGEEKRQQSVVKTQLDWLSEELKLSSSIIQSDYKVYAAFVHRRWVFMQLRRLAESALGNVGKRSKPAAPAGCQLGECAAAGEFDLPEEVLFWAKALLKEKRQGDALLAMDERNFHAWEFRRWVMYQLGQMEDLFVQSSIQFGPAVVGIKEREFASYMNGSAKSDRPRDLFFTPTEVKELNFTSAAVRRNFSNYSAWHQRGFIMQGALRRLQQRQWREEEADNNLRDGMLSQAWGQLEEDLTLLTTAIYCDPLDQSAWYYAKFLIHASKQLTALPFASTAVPIDITAKLDEVCLDLVGEERRLGEDMETYWPYLHLATSLLTSIKKSNDGNSSDVISDRQSALKLAREVWAALQPQGRHVNGDDDCIKCLQELCAHLTTADPLRAGMYKYFLSEVTTA,not soluble
7,MAHHHHHHMFRFCGRRLVARTLPLLADYQELPEAFEFMEHKVADKDIHSAYENMETLRLTVTRQDEFLFKETPVKCVTIVGVNGECGVYPGHAYEITQLTPAPLTVEMPDGTVKKFFTSGGFAHINNEGSCDINCVECIPLTELDVDAAEKALAQQQSALNSAHDDKARAVIEIRIGVLESVIQSLKHA,not soluble
8,MAHHHHHHMFTKFLSRVKAMPPRSGDWANKLGPVALMGCSVGAHMSSTKLLNHFYTSSRDCDMYAELTFHEPGPVECPPETVIFFPVIQCGEMLDEKGEPSEATKDDWYLAMTESTTELLEKGYVPVSVGGDGSATLAMVEAYKRLFRSSEVVLIHCSARPSLEKAEQPIRVLLEKDLLKGVVEIGNRCVSSGDRKIRKQHKVMYMDMQAIYAKGLFCIRDIRNDYPVFLSIDADVLDPAFAPGVESPVPGGFSTRDLLHIMTGIRGPKVAGIDIHGYHPSLDMCRSDGVGLTQMALTKVLKESIVKAYTISTQTAEEGLERVRLMQRQGTLSDNPYPDH,not soluble
9,MAHHHHHHMGCSASKDTTNSKDGAASKGGKDGKTTADRKVAWERIRCAIPRDKDAESKSRRIELFKRFDTNGTGKLSFREVLDGCYSILKLDEFTTHLPGIVQRAFDKAKDLGNKVKGVGEEDLVEFLEFRLMLCYIYDIFELTVMFDTMDKDGSLLIELQEFKEALPKLKEWGVDITDATTVFNEIDTNGSGVVTFDEFSCWAVTKKLQVCGDPDGEGAAKTTADRKVAWERIRCAIPRDKDAESKSRRIELFKQFDTNGTGKLGFREVLDGCYSVLKLDEFTTHLPDIVQRAFDKAKDLGNRVKGVGEEDLVEFLEFRLMLCYIYDIFELTVMFDTMDKDGSLLLELQEFKEALPKLKEWGVDITDATTVFNEIDTNGSGVVTFDEFSCWAVTKKLQVCGDPDGEENGANEGN,soluble
10,MAHHHHHHMGKKKVGEIQRSEDFCIPAGDRDANSALPAEEWPLLLKNYDKMNVRSTHFTLLECGWSPLRRPLAEYIKYGMINMDKPSNPSSHEVVSWIKRILKCDKTGHAGTLDPKVTGALIICTDRATRLVKSQQNAGKTYIGVLRLHDTVSQKKVDAALQRLTGPCFQRPPLIAAVKRQLRIRNIYSNQLIEYDKHRHLAVFETHCEAGTYIRTLCVHVGLILGAGGHMEELRRIRTGVITENDHLSTMHDVMDAQWLYENEKDDTYLRRVILPCEYLLSNHKRIVVKDSAVNAVCYGAKLMIPGLARFDNGIERDDVVVLMTTKGEAIALAYAEMTTSQMASVDHGIVARSKRVIMDRDTYPRRWGLGPIAVKKRSMMKDGLLDKYGRPQSNTPSDWFYVDYGGVKTNAEGVQYGQAPSKVGGVKRQRVPDSDDD,not soluble
11,MAHHHHHHMGNTGVPSFVSTLGPPPPINLFKECQSPLTSGFSSWASFHWILLSDAFSHYYRPLECQTFYGCNFQKQLDAAANYNSFWPHHSRRLEAIRSNTPEQLCITSLHPPSRSPLTQQFPSGSFTQSPYGCRPRSLPCTAPQQWQMHRRSLQQGREHEAGRLLQQPLSFSLI,not soluble
12,MAHHHHHHMGNTVPYNCYERWGKRTPDGPLLNYDPQMPNSGTLSVLLENFDYESTEESNNKCEYIINKEPIEKNNNMNPKVIRNARRRPTYSPTARKINIQSDDEEEDEDDDEKLSTDDSDENISAKDIKDEKIQQYRKTLTKIVKIKTAIFHETVKVTCSKDGKMLEWYKGKNDSDGKKKPIGSFPLNKITSIRTKVDNLKSLEISVSSVHISTYLFTFKTREERESWQNNLESFRKIMSMK,not soluble
13,MAHHHHHHMGTLEAQTQGPGSMFKLTGRKALVTGATGGIGEAIARCFHAQGAIVGLHGTREDKLKEIAADLGKDVFVFSANLSDRKSIKQLAEVAEREMEGIDILVNNAGITRDGLFVRMQDQDWDDVLAVNLTAASTLTRELIHSMMRRRYGRIINITSIVGVVGNPGQTNYCAAKAGLIGFSKALAQEIASRNITVNCIAPGFIKSAMTDKLNEKQKEAIMAMIPMKRMGIGEEIAFATVYLASDEAAYLTGQTLHINGGMAMI,soluble
14,MAHHHHHHMGTLEAQTQGPGSMSMAQQFIDIGANLTDDNYFGNYHGKHYHEEDIDVVLQRAERNGLSHIIITSGCLNDFKKAIEIINKYQNLTNIKLVTTIGVHPTRTNELKQEGYLDELLLLCEKNIDKVVAIGEIGLDYERLQFSDKETQLSGYRTLSILHQKYPYLPFFFHCRKSWSDLCQLNKELGYNGCKGVVHCFDGTEEEMNQILNEGWDIGVTGNSLQSIELLNVMKQIPIERLHIETDCPYCGIKKTSAGFKYLKEKDFGVKVEKYQRNKYVQRRNEPSNIIDIAIIMSSIKHISLFEFVNKVYSNSMNMYFPTMN,soluble
15,MAHHHHHHMGTMGASNDVTDVDDENLLSEELQSSSTGSWSSMGDLQTTESAESDAPSEESDPDERVRRATASFLQWKNKEYVPLSLDEKRAIKEYRKMVAQEEGSYTSTRAQRQRDRAPKLFISREDDWVDLGSPAEGDGLARRRSRKIRFVAAVIASKEVDVHNDGLVVLTDAGEEVPELPRSASILRMSCVKNLTEEAPVFVDDLNSCMMEDEGRSCESAVRWEFPR,soluble
16,MAHHHHHHMHATKSGVTTLSASAGNSDVPVMSAAYEDAARQPNAVFVNVYDIMKSNSWLWSVGLGVHHAGIQVYDKEYQYGRCEEGSGVRAVEPRHSPPHIFREQFFVGQTQLSALEVRKLVARLEQCDTWQGSKYHLVKHNCIHFAQAFCEALLPPHVRVAQMRTALPSTYQSAYMEEVEVDGQQYSLPVLIPPHVSRLSNYATSYLPESALQMLDSMDNPFSTP,soluble
17,MAHHHHHHMHDIYLDNPSTFEILEKMFSLYVNTYPDNELPIGFILMGDFISLKFDYNKNFNDLYIKGFEKLSVLLISKFKLILQNCYLIFIPGKNDPCACKNSIPKMPILPYYIKKFEQNIQSFFSCKKKIIFATNPCRIRHFNKKMIFFRQDILNDLIWSSSINATDDNKNNLQDILISTIVGQSHIYPIPHDNRILKRYSSFLFLYPLPNFICISDNTCNSFISYASDNTSDSIISNSDLSFTKKKTFTVYNVLQHDAKRYVVPI,not soluble
18,MAHHHHHHMHLKIVCLSDEVREMYKNHKTHHEGDSGLDLFIVKDEVLKPKSTTFVKLGIKAIALQYKSNYYYKCEKSENKKKDDDKSNIVNTSFLLFPRSSISKTPLRLANSIGLIDAGYRGEIIAALDNTSDQEYHIKKNDKLVQLVSFTGEPLSFELVEELDETSRGEGGFGSTSNNKY,soluble
19,MAHHHHHHMHPVPQAPYLSSPSPLFPNRGWCWQRPLRIFCPFFSAPLRAASSRRCHRPFLSIRFKKRCCNNPLLLGVVEAILPEPHSPAIPPVILRVFTPPS,not soluble
20,MAHHHHHHMHQLRTFNYVASELGHDEPVLHAVFVTHRCLPPDPPEVNFTTAIPQTVTAASRRTSSDDASIGAAVHVEKTVVLSVEDTLAAPLEVALTVEQELAQLSKKLDAWKVQRLADLQARGGERSPSRLAQMEAAMERRLALRRIEEQDRAQKRVDALLSYLGPRIDKQLQLVAREHDGEEALSSSYARVETTSDVKDSACADKSAASAATPSPPSPRARILCDQQYFVKRQEIALEERGARQAVLRNMWDARRLAHLVEDEVSFRHSIEAREVVWRDRVHSELRASVEMDHV,not soluble
21,MAHHHHHHMICEVLQCNRYPPCCGQYPNGEVNVVLPRSVRGDDLFVLQSLVRCDRVGLSHSGTLMELALMIHAARASSAARITAVIPYISFTESVSSMAAVAEILESMGCQHVITVDMPIDQVEGMFSVPLELISARYEFVQYIANQLTAEGHDFRNITVVAPNGAGVHRAKNFADALMQYKKLSPDEQFVPLCTAVRRQVYRGLQDTVLNINHCGANVGSTRAFEQALLQQEQGICAIQDDGDTTITSEGIDLVGDVQGKLCIVVDTSVDEATEICQTACKLREEGASRIILIATHFIISGRAVERLIESPIDLIVVTDSVEHDEVFKNPHIARRLRVLPIAPLLARAIEKLHTENSLTTLFEK,not soluble
22,MAHHHHHHMILLQLTVVGYLNTGKTSLINSIMNNEIFTNYSHTPLPMIYYKVHKDKNRAFCVEIEDTSVDVDINNFTNMMRKEITTNSKNMKNPVFSYFENPCIPFQAHDPYNSISYGRMAYFLVFDLTNPSTFEYVKMIYLNMSSIYEKYYTLKPFISLVGNKSDLADENCALVREAENFSNEHMVQLWLTSAYTGKNVKKLFLHTINMVYNNTNLWKYDIEESGSESSES,not soluble
